According to the Human Domainome abundance scans (Beltran et al. 2025):
± gives the uncertainty stated by the source.

B1: Ras GTPase-activating protein 1, residues 281 to 341; numbered along this chain, P20936 (parent)
chain: RRRVRAILPYTKVPDTDEISFLKGDMFIVHNELEDGWMWVTNLRTDEQGLIVEDLVEEVGR

Variants of: B1
Assay: abundance fitness (aPCA) (normalised: wild type 0, dead -1); higher = more abundant; growth selection in yeast, the domain comes from the species named
Settings: Homo sapiens

Row | Variant | abundance fitness
1 | D54L | -0.281 ± 0.041
2 | R5S | -0.272 ± 0.027
3 | L22A | -0.095 ± 0.042
4 | L43K | -0.206 ± 0.065
5 | V52H | 0.029 ± 0.031
6 | I19P | -0.989 ± 0.11
7 | I19W | -1.04 ± 0.12
8 | M38G | -0.78 ± 0.044
9 | F21D | -0.862 ± 0.03
10 | V52K | 0 ± 0.046
11 | E53T | 0.041 ± 0.032
12 | E53F | -0.337 ± 0.03
13 | R5V | -0.007 ± 0.027
14 | E18G | -0.507 ± 0.031
15 | V56A | -0.421 ± 0.035
16 | T16F | -0.752 ± 0.04
17 | T11C | -0.028 ± 0.028
18 | D54Y | -0.183 ± 0.032
19 | K23L | -0.232 ± 0.027
20 | L22M | -0.054 ± 0.062
21 | G49D | -0.836 ± 0.05

Row | Variant | abundance fitness
22 | N42G | -0.802 ± 0.036
23 | G49Y | -0.936 ± 0.056
24 | V40H | -0.858 ± 0.063
25 | D25L | -0.852 ± 0.062
26 | I28H | -0.069 ± 0.022
27 | D35C | -0.163 ± 0.032
28 | R5L | -0.256 ± 0.031
29 | R44I | -0.774 ± 0.041
30 | G36N | -0.149 ± 0.028
31 | D17C | -0.105 ± 0.03
32 | R3A | -0.292 ± 0.035
33 | W39N | -0.134 ± 0.022
34 | E47W | -0.94 ± 0.11
35 | H30V | -0.285 ± 0.029
36 | L43I | -0.012 ± 0.029
37 | V29A | -0.694 ± 0.041
38 | L55F | 0.015 ± 0.03
39 | D25I | -0.946 ± 0.059
40 | R3S | -0.136 ± 0.025
41 | Y10M | -0.577 ± 0.096
42 | L50T | -0.04 ± 0.032

Row | Variant | abundance fitness
43 | R61Y | -0.076 ± 0.031
44 | G36F | -0.951 ± 0.065
45 | G24F | -0.584 ± 0.035
46 | G24H | -0.201 ± 0.033
47 | I7K | 0.037 ± 0.072
48 | D25A | -0.949 ± 0.066
49 | W39L | -0.063 ± 0.022
50 | R3C | -0.212 ± 0.029
51 | A6P | -1.04 ± 0.05
52 | F27V | -0.901 ± 0.045
53 | D46F | -0.065 ± 0.024
54 | D17G | -0.094 ± 0.026
55 | V29G | -0.861 ± 0.039
56 | L43T | -0.038 ± 0.036
57 | T16C | -0.38 ± 0.027
58 | M38N | -0.623 ± 0.042
59 | T41Y | -0.312 ± 0.033
60 | R5T | -0.21 ± 0.033
61 | P9L | -0.772 ± 0.048
62 | L55Q | -0.033 ± 0.059
63 | L22R | -0.045 ± 0.032

Row | Variant | abundance fitness
64 | L43P | -0.784 ± 0.079
65 | R44V | -0.708 ± 0.047
66 | V13F | -0.185 ± 0.027
67 | V40K | -0.682 ± 0.1
68 | T45Q | -0.962 ± 0.25
69 | R61K | 0.108 ± 0.074
70 | T45P | -0.988 ± 0.084
71 | E57H | -0.224 ± 0.039
72 | T41A | -0.633 ± 0.045
73 | V13M | -0.013 ± 0.073
74 | D35K | -0.036 ± 0.062
75 | N31Y | -0.057 ± 0.029
76 | I51V | 0.023 ± 0.026
77 | R1W | -0.315 ± 0.059
78 | T16V | -0.894 ± 0.047
79 | Q48M | -0.107 ± 0.057
80 | W39G | -0.67 ± 0.024
81 | E58A | -0.134 ± 0.045
82 | R5D | -0.86 ± 0.067
83 | V4C | -0.465 ± 0.023
84 | V52Q | 0.045 ± 0.056
